Source: paper PMC2582951

Target: cerFP505 (ceriantharian fluorescent protein with an emission maximum at 505 nm) (deep sea ceriantharian (taxon Spirularia, species not determined))
Test: SEC; elution profile of purified recombinant cerFP505; conditions as described in refs 43, 44

stoichiometry N: 4
Substance: cerFP505 (ceriantharian fluorescent protein with an emission maximum at 505 nm) (natural protein)
